Legend:
[1] = molecular target: T1, SaroL-1 (Salpingoeca rosetta, UniProt F2UID9); assay: Isothermal titration calorimetry (MicroCal iTC200) at 25 °C in 20 mM Tris/HCl pH 7.5, 100 mM NaCl, ligand titrated into SaroL-1, one-site model with stoichiometry N fixed to 3.; assay type: binding
T1 construct: gene PTSG_08235; monomeric in solution
Procedure: Isothermal Titration Calorimetry (ITC)
ITC experiments were performed with MicroCaliTC200 (Malvern Panalytical). Experiments were carried out at 25 °C ± 0.1 °C. SaroL-1 and ligands samples were prepared in Buffer A. The ITC cell contained SaroL-1 in a concentration range from 0.05 mM to 0.16 mM. The syringe contained the ligand solutions in a concentration from 10 to 50 mM. 2 μL of ligands solutions were injected into the sample cell at intervals of 120 s while stirring at 750 rpm. Integrated heat effects were analysed by nonlinear regression using one site binding model (MicroCal PEAQ-ITC Analysis software). The experimental data were fitted to a theoretical curve, which gave the dissociation constant (Kd) and the enthalpy of binding (∆H).

[2] = molecular target: T1, SaroL-1; assay: Inhibition of SaroL-1 (217 nM) induced hemolysis of rabbit erythrocytes after 1 h pre-incubation of lectin with sugar at RT, then 1-2 h at 37 °C, absorbance of supernatant at 540 nm.; assay type: cell-based; details: n = 2
Procedure: Hemolytic assay (HA) and inhibition of hemolytic activity (IHA)
Both HA and IHA assays were performed in U-shaped 96-well microtiter plates. In both cases, a control negative experiment was performed with Buffer A added to erythrocyte solution (2% final concentration), and the resulting value was subtracted from all data.
IHA was performed in U-shaped 96-well microtiter plates. […] 4% rabbit erythrocytes were added to the mixture in a 1:1 ratio and incubated for 1–2 h at 37 °C. The samples were centrifuged, 2600 × g for 15 min at RT, and the absorbance of the supernatant was measured at 540 nm by a Tecan reader.

[3] = Confocal imaging of SaroL-1 binding to FSL-B GUVs; details: 200 nM SaroL-1, FSL-B GUVs
Source text: (§1) GUVs were composed of 1,2-dioleoyl-sn-glycero-3-phosphocholine (DOPC), cholesterol (both AvantiPolar Lipids, United States), Atto 647 N 1,2-dioleoyl-sn-glycero-3-phosphoethanolamine (DOPE; Sigma-Aldrich), and one of the following glycolipids at a molar ratio of 64.7:30:0.3:5. The glycolipids are globotriaosylceramide (Gb3, Matreya), FSL-Gb3 (Function-Spacer-Lipid with globotriaosyl saccharide), and corresponding FSL-isoGb3 (Function-Spacer-Lipid with iso-globotriaosyl saccharide) synthetized as previously described[84],[85], FSL-A(tri) (Function-Spacer-Lipid with blood group A trisaccharide; Sigma-Aldrich), FSL-B(tri) (Function-Spacer-Lipid with blood group B trisaccharide; Sigma-Aldrich) or lactosylceramide (LC, Sigma-Aldrich).
(§2) GUVs were prepared by the electroformation method as earlier described. Briefly, lipids dissolved in chloroform of a total concentration of 0.5 mg/mL were spread on indium tin oxid-covered (ITO) glass slides and dried in a vacuum for at least 1 h or overnight. […]
(§3) Samples of GUVs and SaroL-1 were imaged using a confocal fluorescence microscope (Nikon Eclipse Ti-E inverted microscope equipped with Nikon A1R confocal laser scanning system, 60x oil immersion objective, NA = 1.49 and four laser lines: 405 nm, 488 nm, 561 nm, and 640 nm). […]

[4] = Confocal imaging of SaroL-1 binding to FSL-Gb3 GUVs; details: 200 nM fluorescent-labelled SaroL-1, FSL-Gb3 GUVs
Source text: as §1, §2, §3

[5] = system: H1299 cells; assay: Cell detachment assay; assay type: cell-based, human
Procedure: (§4) The human lung epithelial cell line H1299 (American Type Culture Collection, CRL-5803) was cultured in a complete medium, consisting of Roswell Park Memorial Institute (RPMI) medium supplemented with 10% fetal calf serum (FCS) and 2 mM L-glutamine at 37 °C and 5% CO2. Cells were stimulated with different concentrations of SaroL-1 in a complete medium for indicated time points.
To determine the role of SaroL-1 in cell detachment, 3 × 10^5 cells per well were counted and allowed to adhere overnight in a 6-well plate. The next day, cells were incubated for 2, 4, or 8 h with two different concentrations of SaroL-1 (270 nM and 1.36 µM) diluted in a complete medium compared to a negative control. As a positive control, cells were incubated with trypsin-EDTA for 10 min at 37 °C, to induce 100% cell detachment. The number of cells in suspension at the indicated time points was quantified by analyzing the supernatant with the CytoSmart Corning cell counter. Cells were resuspended with Trypan Blue solution (Sigma-Aldrich) in a ratio 1:1 for the quantification of cellular death upon detachment.

[6] = system: H1299 cells; assay: Lactate dehydrogenase (LDH) assay; assay type: cell-based, human; details: 271 nM and 1.36 µM SaroL-1, 2 and 4 h
Procedure: as §4
This assay was used to monitor rapid changes in cell viability following the formation of pores induced by SaroL-1. Prior to running the assay, kit components were assembled according to CyQuant^TM LDH Cytotoxicity assay kit (Invitrogen—Thermo Fisher Scientific) manufacturer´s instructions. 1 × 10^4 cells per well were plated in 100 µL in triplicates in a 96-well plate with a flat bottom and allowed to adhere overnight. […] After 30 min\ of incubation at room temperature and in absence of light, 50 µL of Stop solution were added to each well and the absorbance of samples was recorded at 490 nm and 680 nm using a BioTek microplate reader. To determine LDH activity, the reference absorbance at […] (background) was subtracted from the 490 nm absorbance values before calculation of % cytotoxicity. % cytotoxicity was calculated according to the following formula = [SaroL-1-treated LDH activity − spontaneous LDH activity]/[maximum LDH activity − spontaneous LDH activity] × 100.

[7] = Confocal imaging of SaroL-1 binding to Gb3 wt GUVs; parameters: species or system porcine; details: 200 nM fluorescent SaroL-1, Gb3 wt GUVs, compared with FSL-Gb3 GUVs
Source text: as §1, §2, §3

[8] = Confocal imaging of SaroL-1 binding to DOPC GUVs without glycolipids; details: 200 nM SaroL-1, DOPC GUVs without glycolipids (negative control)
Source text: as §1, §2, §3

| Molecule | Kd [1] | IC50 [2] | binding to GUVs [3] | binding to GUVs [4] | time point at which cell detachment is promoted ([5]; 271 nM SaroL-1) | cell rounding and detachment (in words) ([5]; compared to PBS-treated cells) | time point at which detachment of cells is visible ([5]; highest concentration, 1.36 µM SaroL-1) | LDH release / membrane damage (in words) [6] | binding to GUVs [7] | binding to GUVs [8] |
| --- | --- | --- | --- | --- | --- | --- | --- | --- | --- | --- |
| O=[N+]([O-])c1ccc(O[C@H]2O[C@H](CO)[C@H](O)[C@H](O)[C@H]2O)cc1 [PNPG, p-nitrophenyl-α-D-galactopyranoside] | 1010 µM | 2900 µM |  |  |  |  |  |  |  |  |
| SaroL-1: Recombinant pore-forming lectin of Salpingoeca rosetta (UniProt F2UID9, 329 amino acids) with β-trefoil and aerolysin-like domains (protein, left off: His6, N-terminal, state not stated, Recombinant pore-forming lectin of Salpingoeca rosetta (UniProt F2UID9, 329 amino acids) with β-trefoil and aerolysin-like domains) MSSTFEPATDSPLPVPGVQYFLQHVQSGKYVHPHGGSDMPGNDTALVLHHGFDEKRDALRWVFVNDAENKHQLKHYSSGKFVHPKGGKVGKEATLVVHSSPGRPETMIEMVQEDGRTYLRHTDSDYYVHPHGGSPNPGDNTRLVYYSGYRPSLAFLAIPAETLFVDRIEIHQAQALESINTITSLSDEHRNDTDQPVQTSISVALEESLQDSAQLSFERCFGLKVGSEFEVGLPLVGKTKVSVQFSGSWKSSTIKGEVRTSAVKVQINEHVTIPPGKCVQIRIDTRRCTKTAPATMYLRTASGIEVQRETTVTSTYHYDQEVHVVPVTN |  |  | No binding | Strong binding | 8 h | dose-dependent rounding and detachment of cells | 2 h | induced acute cytotoxicity | of the same order | No binding |
